Measured values from publication PMC2603313, “Direct Inhibition of GSK3β by the Phosphorylated Cytoplasmic Domain of LRP6 in Wnt/β-Catenin Signaling” (PLoS ONE, 2008).
Ends that are not written are not given here.

B1: GST-fused LRP6 miniCL (residues 1470–1510 of human LRP6), phosphorylated by GSK3β and CK1 (domain or fragment, UniProt O75581 1470-1510, looked up)
chain: SSSSSSTKGTYFPAILNPPPSPATERSHYTMEFGYSSNSPS
modifications: also: GST-fused, end not given here, phosphorylated by GSK3β and CK1ε, sites not given here
notes: LRP6, human, intracellular fragment miniCL, residues 1470-1510 (Ser/Thr rich cluster and first PPPSPxS motif); also called phosphorylated GST-miniCL; GST-miniCL phos; source: E. coli, purified (Glutathione-agarose, HiTrapQ), then phosphorylated in vitro with recombinant GSK3β and CK1ε
B2: GST-fused LRP6 miniCLMT (residues 1470–1510 of human LRP6, S1490A), phosphorylated by GSK3β and CK1 (domain or fragment, UniProt O75581 1470-1510, looked up)
chain: SSSSSSTKGTYFPAILNPPPAPATERSHYTMEFGYSSNSPS
modifications: also: GST-fused, end not given here, phosphorylated in vitro by GSK3β and CK1ε, sites not given here
notes: LRP6, human, intracellular fragment miniCL, residues 1470-1510, with Ser1490 replaced by Ala; also called phosphorylated GST-miniCLMT; GST-miniCLMT phos; source: E. coli, purified (Glutathione-agarose, HiTrapQ), then phosphorylated in vitro with recombinant GSK3β and CK1ε
B3: GST-fused LRP6 miniCLMT (residues 1470–1510 of human LRP6, S1490A), not phosphorylated (domain or fragment, UniProt O75581 1470-1510, looked up)
chain: SSSSSSTKGTYFPAILNPPPAPATERSHYTMEFGYSSNSPS
modifications: also: GST fusion (GST left off)
notes: LRP6, human, intracellular fragment miniCL, residues 1470-1510, with Ser1490 replaced by Ala; also called GST-miniCLMT; source: E. coli, purified (Glutathione-agarose, HiTrapQ)

Assays:
GSK3β [1] = target: T1, GSK3β (Mus musculus, UniProt Q9WV60); test: Far western binding of GSK3β to GST-fused LRP6 fragments; conditions: for Binding of GSK3β: GST-fusion treated with GSK3β and CK1, GSK3β 1 µg/ml, three independent experiments
T1 construct: The catalytic domains of mouse GSK3β (residues 27–393) and CK1ε (residues 1–319) were expressed and purified; made in house
From the text: We first investigated whether the intracellular region of LRP6 binds to GSK3β in a phosphorylation-dependent manner. To detect binding, we used recombinant GST-fused LRP6 fragments (miniCL, miniCLMT, PPPSPxS, PPPAPxS; Fig. 1A) and GSK3β proteins in a far western binding assay. This assay is appropriate as the LRP6 cytoplasmic region is expected to be natively unstructured and therefore should not suffer from denaturation artifacts. Prior to the binding reaction, the GST-fused LRP6 fragments were phosphorylated by GSK3β and CK1 and transferred to a PVDF membrane. The membrane was incubated with GSK3β, and bound GSK3β was detected with an anti-GSK3β antibody. GSK3β bound to GST-miniCL and GST-miniCLMT, but not GST-PPPSPxS or GST-PPPAPxS (Fig. 4). […] Also, given the measured Ki value of the single PPPSPxS motif, it was expected that the single PPPSPxS motif might exert a limited role in recruiting the GSK3β.
Figure 4 Phosphorylation-dependent binding of the LRP6 intracellular region to GSK3β in the absence and presence of Axin. (A) GST (Lane 1), GST-fused miniCL (Lane 3; GST-miniCL), GST-fused miniCLMT (Lane 5; GST-miniCLMT), and their phosphorylated forms (Lanes 2, 4, 6; indicated by “phos”) were loaded onto an SDS-polyacrylamide gel, and then transferred to PVDF membrane (Left top). […] The phosphorylated protein bands show an upshifted mobility on the gel. The PVDF membrane was incubated with 1 µg/ml of GSK3β to allow GSK3β to bind to the proteins in the membrane. The bound GSK3β was visualized on the transferred proteins by western blotting using an anti-GSK3β antibody (Left bottom), and the GSK3β protein used to obtain the phosphorylated forms of each protein is indicated by GSK3β*. The band intensities of bound GSK3β were measured from the three independent experiments (Right). […] The phosphorylated GST-fused miniCL was transferred to PVDF membrane, and the membrane was incubated with GSK3β (0.1 µg/ml) and GST-fused Axin GBD domain protein (0, 10 µM). Error bars indicate the standard deviation from three independent experiments. […]

GSK3β [2] = target: T1, GSK3β; test: In vitro GSK3β activity assay with synthetic peptides (phosphorylation of primed β-catenin N-terminal fragment); type: biochemical; conditions: at 100 µM; primed β-catenin N-terminal fragment 7 µM, 1 mM ATP, pH 8.0, 30 min at 37°C; 4–7 independent experiments
From the text: We synthesized one dually-phosphorylated (NPPPpSPApTERSH, where pS or pT designates a phosphorylated Ser or Thr residue), two singly-phosphorylated (NPPPSPApTERSH and NPPPp[…]) and one non-phosphorylated ([…]) peptides derived from the first PPPSPxS motif of LRP6 (Fig. 1A). To measure the GSK3β activity toward β-catenin in vitro, we utilized a β-catenin N-terminal fragment (residues 1–133), whose Ser45 was prephosphorylated by CK1, as a substrate (Ha et al., 2004). Each synthetic peptide was added to a reaction mixture containing the purified GSK3β enzyme and the substrate β-catenin N-terminal fragment. The GSK3β activity was determined through measurement of the intensity of the supershifted (retarded) β-catenin bands (Fig. S3), which represent the phosphorylated product species (Fig. S4), on an SDS-polyacrylamide gel (Figs. S3, S4, S5, S6, S7). […] This corresponds well with the results of Zeng et al., who reported that the first Ser residue in the PPPSPxS motif has a more important role in Wnt/β-catenin signaling than the second Ser residue.
The catalytic domains of mouse GSK3β (residues 27–393) and CK1ε (residues 1–319) were expressed and purified as previously described. The N-terminal region (residues 1–133) of β-catenin was expressed in Escherichia coli as a GST-fusion protein with a TEV protease cleavage site and then purified using Glutathione-agarose. Subsequently, the GST tag was cleaved using recombinant TEV protease and was removed by repeated HiTrapQ anion-exchange chromatography. The N-terminal region of β-catenin was then phosphorylated by incubation with the catalytic domain of CK1ε (0.28 mg/ml) at 37°C for 20 min in 50 mM Tris buffer (pH 8.0) containing 10 mM MgCl2, 10 mM 2-mercaptoethanol, and 2 mM phenylmethylsulfonylfluoride. The phosphorylated β-catenin fragment was then further purified using HiTrapQ anion-exchange chromatography to remove the CK1ε enzyme. […]

[3] = target: T2, catalytic domain of mouse GSK3β (residues 27–393) (mouse, UniProt Q9WV60 27-393); test: far-Western, overlay or dot blot; GST-fused LRP6 fragments (with or without prior treatment with GSK3β and CK1) run on SDS-PAGE and transferred to PVDF; membrane incubated 3 h with 1 µg/ml GSK3β in 5% skim milk in TBST (20 mM Tris pH 7.6, 137 mM NaCl, 0.05% Tween 20); bound GSK3β detected with anti-GSK3β antibody; conditions: both partners purified
T2 construct: GSK3β (glycogen synthase kinase 3 beta), mouse, catalytic domain, residues 27-393; also called recombinant GSK3β catalytic domain; source: recombinant, expressed and purified as previously described [32]

Row | Molecule | Binding of GSK3β (GSK3β [1]) | binding result [3] | further results
1 | GST-miniCL: GST-fused human LRP6 miniCL, residues 1470–1510 (SSSSSSTKGTYFPAILNPPPSPATERSHYTMEFGYSSNSPS; also: GST fusion (GST left off)) | bound | – | –
2 | GST-miniCLMT: GST-fused miniCLMT, residues 1470–1510 with substitution at Ser1490 with Ala (SSSSSSTKGTYFPAILNPPPAPATERSHYTMEFGYSSNSPS; also: GST fusion (GST left off)) | bound | – | Effect of S1490A mutation on GSK3β binding (GSK3β [1]): does not affect binding
3 | NPPPSPApTERSH [PPPSPx(p)S, singly-phosphorylated peptide (second Ser/Thr) derived from the first PPPSPxS motif of LRP6] | – | – | Inhibitory effect on GSK3β activity toward β-catenin (GSK3β [2]): only a marginal inhibitory effect
4 | B1 | – | binds | –
5 | B2 | – | binds | –
6 | B3 | – | binds | –
